According to publication PMC3554688, “Potassium and Ionic Strength Effects on the Conformational and Thermal Stability of Two Aldehyde Dehydrogenases Reveal Structural and Functional Roles of K^+-Binding Sites” (PLoS ONE, 2013):

Legend:
[1] = biological target: the molecule itself; assay: SEC; Superdex 200 HR 10/30, room temperature; K-buffer (1 mM PIPES-TEA hydroxide pH 6.9, 1 mM EDTA, 0.5 mM DTT, 250 mM KCl); 0.25 mg/ml protein
[2] = biological target: the molecule itself; assay: dynamic light scattering; 20°C; K-buffer (non-salt buffer plus 250 mM KCl); 0.25 mg/ml enzyme
[3] = biological target: the molecule itself; assay: dynamic light scattering; 20°C; non-salt buffer (1 mM PIPES-TEA hydroxide pH 6.9, 1 mM EDTA, 0.5 mM DTT); 0.25 mg/ml enzyme; for SoBADH: dimers to tetramer

| Protein | stoichiometry N [1] | stoichiometry N [2] | stoichiometry N [3] |
| --- | --- | --- | --- |
| betaine aldehyde dehydrogenase from Pseudomonas aeruginosa (enzyme, betaine aldehyde dehydrogenase (BADH, ALDH9) of Pseudomonas aeruginosa; recombinant; Homotetramer; also called PaBADH; ALDH9; source: E. coli, purified to homogeneity) MARFEEQKLYIGGRYVEASSGATFETINPANGEVLAKVQRASREDVERAVQSAVEGQKVWAAMTAMQRSRILRRAVDILRERNDELAALETLDTGKPLAETRSVDIVTGADVLEYYAGLVPAIEGEQIPLRETSFVYTRREPLGVVAGIGAWNYPVQIALWKSAPALAAGNAMIFKPSEVTPLTALKLAEIYTEAGVPDGVFNVLTGSGREVGQWLTEHPLIEKISFTGGTSTGKKVMASASSSSLKEVTMELGGKSPLIIFPDADLDRAADIAVMANFFSSGQVCTNGTRVFIHRSQQARFEAKVLERVQRIRLGDPQDENTNFGPLVSFPHMESVLGYIESGKAQKARLLCGGERVTDGAFGKGAYVAPTVFTDCRDDMTIVREEIFGPVMSILVYDDEDEAIRRANDTEYGLAAGVVTQDLARAHRAIHRLEAGICWINTWGESPAEMPVGGYKQSGVGRENGLTTLAHYTRIKSVQVELGDYASVF | 4 | – | – |
| betaine aldehyde dehydrogenase from spinach (Spinacia oleracea) (enzyme, betaine aldehyde dehydrogenase (BADH, ALDH10) of Spinacia oleracea; recombinant; Homodimer in K-buffer; associates into tetramers in the non-salt buffer; also called SoBADH; ALDH10; source: E. coli, purified to homogeneity) MAFPIPARQLFIDGEWREPIKKNRIPVINPSTEEIIGDIPAATAEDVEVAVVAARRAFRRNNWSATSGAHRATYLRAIAAKITEKKDHFVKLETIDSGKPFDEAVLDIDDVASCFEYFAGQAEALDGKQKAPVTLPMERFKSHVLRQPLGVVGLISPWNYPLLMATWKIAPALAAGCTAVLKPSELASVTCLEFGEVCNEVGLPPGVLNILTGLGPDAGAPLVSHPDVDKIAFTGSSATGSKVMASAAQLVKPVTLELGGKSPIVVFEDVDIDKVVEWTIFGCFWTNGQICSATSRLLVHESIAAEFVDKLVKWTKNIKISDPFEEGCRLGPVISKGQYDKIMKFISTAKSEGATILYGGSRPEHLKKGYYIEPTIVTDISTSMQIWKEEVFGPVLCVKTFSSEDEAIALANDTEYGLAAAVFSNDLERCERITKALEVGAVWVNCSQPCFVQAPWGGIKRSGFGRELGEWGIQNYLNIKQVTQDISDEPWGWYKS | – | 2 | 4 |
